In the nanobody polyreactivity screen of Harvey et al. (2022):

Assay: yeast display, Sf9 membrane polyspecificity reagent, FACS + sequencing; frameworks hold sequencing errors
Summary of the method: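 Galactose induction of a Saccharomyces cerevisiae BJ5465 synthetic nanobody display library ran 36–48 hours. The cells were then stained for 1 hour at 4 °C with 10% biotinylated, detergent-solubilized Sf9 membrane reagent, pulled down on streptavidin microbeads and FACS-sorted into low and high (top ~1%) gates on expression and reagent-binding fluorescence. Labels for polyreactivity follow the gate of origin.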

| Sequence | polyreactivity (PSR sort gate) |
| --- | --- |
| QVQLVETGAGLVQAGGRLRLSCDSSGSTFYVYYMGWYRQSPGKERELVAAISSGAGSTYYADSVKGRFTISRDNAKNTVYLQMNSLTRKIPRSSTALLFTVNGGGSRSHDYWAQGTQVTVSS | low polyreactivity |
| QVQLVESGGGLVQAGGSLRLSCAASGRTFYWYAMGWYRQAPGKERELVAAIRRSGGRTYYADSVKGRFTISRDNAKNTVYLQMNSLKPEDTAVYYCNVAYLRYPGPLDYWGQGTQVTVSS | high polyreactivity |
| QVQLVESGGGLVQAGGSLRLICAASGIIFTRYAMGWYRQAPGKERELVAAISTRGGSTYYADSVKGRFTISRDNAMNTVYLQMNSLKPEDTAVYYCAATNAKDGEMDYWGQGTQVTVSS | high polyreactivity |
| QVQLVESGGGLVQAGGSLRLSCAASGRTINRSAMGWYRQAPGKARELVAAISTSGGTTYYADSVKGRFTISRDNAQNTAYLQMNSLKPEDPADYYCAKRGPVRTQYTYYYWGQGTQVTVSS | high polyreactivity |
| QVQLVESGGGLVQAGGSLRLSCAASGSIFYYYAMGWYRQAPGKERELVAAIDASGGSTYYADSVKGRFTISRDNAKNTVYLQMNSLKPEDTAVYYCATRSPRLSRHRRYYSWGQGTQVTVSS | high polyreactivity |
| QVQLVESGGGLVQAGGSLRLSCAASGGTFTGYAMGWYRQAPGKERELVAAISYSGTRTYYADSVKGRFTISRDNAKNTVYLQMNSLKPEDTAVYYCNALYAIWHDYWGQGTQVTVSS | high polyreactivity |
| QVQLVESGGGLVQAGGILRLSCAASGRTFGGNAIGWYRQAPGKERELVAAITVSAGHTYYADSVKGRFTISRDNAKNTVYLQMNSLKPEDTAVYYCAAGVPYYWSYVWKHPRFDHWGQGTQVTVSS | low polyreactivity |
| QVQLVESGGGLVQAGGSLRLSCAASGRIFRYYAMGWYRQAPGKERELVAAITSSGSNTYYADSVKGRFTISRDNAKNTVYLQMNSLKPEDTAVYYCNARWRLVSSGFDGGYWGQGTQVTVSS | high polyreactivity |
| QVKLVESGGGLVQAGGSLRLSCAASGSTFYKYTMGWNRQEPGKGRELVAAINWSGSTYYADSVKGRFTISRDNAKNTVYLQMNSLKTEDTAVYYCAATYIYRYDYWGQGTQVTVSS | high polyreactivity |
| QVQLVESGGGLVQAGGSLRLSCAASGFTFDFYAMGWYRQAPGKERELVAAISKNDGTTYYADSVKGRFTISRDNAKNTVYLQMYSLKPVDTAVYYCAAESGYPVYTYVSSGDYWGQGTQVTVSS | low polyreactivity |
| QVQLVESGGGLVQAGGSLRLICAASGLTFRPNSMGWFRQAPGKERELVAAITWLGGRTYYADSVKGRFTISRDNSKNTVYLQMNSLKPEDTEVYYCSADSPYRGRQCPLNYGGDYWGQGTQVTVSS | high polyreactivity |
| QVQLVESGGGLVQAGGSLRLSCAASGRTFYSNTMGWYRQSPGKERELVAAIDWSGGRTYYADSVKGRFTISRDNAKNTVYLQMHSLKPEDTAVYYCNTVGYSLRLRTGGYWGQGTQVTVSS | high polyreactivity |
| EVQLVESGGGLVQAGGSLRLSFAASGFTFRYYAMGWYRQAPGKERELVASITGGGRTYYADSVKGRFTISRDNAKNTVYLQMNSLKPEDTAVYYCATLLAYRLGSGYDSWGQGTQVTVSS | high polyreactivity |
| QVQLVESGGGLVQAGGSLRLICAASGFNLEYYSMGWYRQATGKERELVAVITESDGNTYYPDSVKGRFTISRDTAKNTVYLQMYSLKPEDTALYYCAAPYSFIQGGIRRGYHGYVYWGQGTQVTVSS | low polyreactivity |
| QVQLVESGGGLVQAGGSLRLSCAASGSIFFRYTMGWYRQAPGKERELVAAITGSGGSTYYADSVKGRFTISRDNAKNTVYLQMNSLKPEDTAVYYCARPGWGRYEYWGQGTQVTVSS | high polyreactivity |
| QVQLVESGGGFVQAGGSLRLSCAASGCTFIKYAMGWYTQAPGKEREFVAAITRSGTSTYYADSVKGRFTISRDNAKNTVYLQMNRLKPEDTAVYFCSARYVYNSDRVSERDYWGQGTQVTVSS | high polyreactivity |
| QVQLVESGVGLVQAGGSLRLSCAASGRTFVGNAMGWYRQAPGKERELVAAISVSGGSTYYADSVKGRFTISRDNAKNTVYVQMNSLKPEDTAGYYCAADGYYNRYGYRTSDESEYWGQGTQVTVTS | low polyreactivity |
| QVQLVESGGGLVQAGGSLRLSCPASGRTIEGYAMGWYRQATGKERELVAAISRRGGSTYYADSVKGRFTISRDNAKNTVFLQMNSLKPEDTAVYYCAARDASTGAVRYYYWGQGTQVTVSS | high polyreactivity |
| QVQLVETGGGLVQAGGSLRLSCAASGRTLTCYAMGWYRQAPGKERELVAAISWSGGSTYYADSVKGRFTISRDNAKNTVYLQMYSLIPEDTAVYYCAADRVRSYFSRYYSTPLDYYWGQGTQVTVSS | high polyreactivity |
| QVQLVESGGGLVQAGGSLRLSCAASGIIFADNDMGWYRQAPVKERELVATISSAGNTNYADSVKGRFTISRDNAKNTVYLQMNSLKPEDTAVYYCAVVYYIPLLPPWIYEYDYWGQGTQVTVSS | low polyreactivity |
| QVQLVESGGGLVQAGGSLRLSCAASGGTFAFNAMGWYRQAPGKERELVATIRYSGGSTYADSVKGRFTISRDNAKNTVYLQMNSLKPEDTAVYYCAASGYYIFSWRYDYWGQGTQVTVSS | low polyreactivity |
| QVQLESGGGLVQAGGSLRLRCEASGITFQLYDMGWYRQAPGKERELVAAINSSGGSTYYADSVKGRFTISRDNAKNTVYLQMNSLKPEDTAVYYCNVGFAPVTNDQPVSTEYDYWGQGTQVTVSS | low polyreactivity |

| Sequence | polyreactivity (PSR sort gate) |
| --- | --- |
| QVQLVESGGGLVQAGGRLRLSCAASGSTFEEYAMGWYRQAPGKERELVAGITWGGGSTYYADSVKGRFTISRDNAKNTVYLQMNSQKPEDTAVYYCAAEPGWYADTPASDSKYDYWGQGTQGTVSS | low polyreactivity |
| QVQLVESGGGLVQAGGSLRLSCAASGSTFVGYAMGWYRLAPGKEREFVAAITRGGSTNYADSVKGRFTISRDNAKNTVYLQMNSLKPEDTAVYYCAARDRREGFNFDYCGQGTQVTVSS | low polyreactivity |
| QVQLEESGGGLVQAGGSLRLSCAASGGNFPVNAIGWYRQAPGKERELVATITYDGGNTYYADSVKGRFTISRDNAKNTVYLQMNSLKPEDTAVYYCAARTPQRSEWTKYGYWGQGTLVTVSS | low polyreactivity |
| QVQLVESGGGLVQAGGSLRLSCAASGSTFGGNAKGWYRQAPGKERELGAAISSSGGSTYYADSVKGRFTLSRDNAKNTVYLQMNSLKPEDTAVYYCAALYHWTYDYWGQGTQVTVSS | low polyreactivity |
| QVQLVESGGGLVQAGGSLRLSCAASGRILHGYAMGWYRQAPGKERELVAAITSSGGRTYYADSVKGRFPISRDNAKNTVYLQMISLKPEDTAVYYCAADRPAYRTGDSKYDYWGQGTQVTVSS | low polyreactivity |
| QVQLVESGGGLVQAGGSLRLSCAASGRTFPYYAMGWYRQAPGKERELVAAISSSGGRTYYADSVKGRFTISRDNAKNTVYLQMNSQKPEDTAVYYCAAQTPGVYLRQIGGYYYWGQGTQVTVSS | low polyreactivity |
| LVQLVESGGGLVQAGGSLRLSCAASGNIFYWYAMGWYRQAPRKEREFVAAITRSGGSTSYADSVKGRFTISRDNAKNTVYLQMNSLKPEDTAVYYCNATHWVHFQEFYSWGQGTQVTVSS | low polyreactivity |
| QVQLVESGGGLVQAGGSLRLSCAASGTTFRIYSMGWYRQAPGKERELVAGITRRGGSTFYADSVKGRFTISRDTAKNTVYFQMNSLKPEDTAVYYCAARFRGGMDYWGQGTQVTVSS | high polyreactivity |
| QVQLVESGGGLVQAGGSLRLSCAASGITFSNYAIGWYRQAPGKERELVAAISKRGGSTYYADSVKGRFTISRDNAKNTVYLQMNSLKPEDTAVYYCAAAGVRVYVRSGLDYWGQGTQVTVSS | high polyreactivity |
| QVQLVESGGGLVQAGGSLRLSCASSGSTFYFNAMGWSRQAPGKERELVAGNSSGGSTYYADSVKGRFTISRDNAKNTVYLQMNSLKPEDTAVYYCAADSDTFYYTGYDYDYWGQGTQVTVSS | low polyreactivity |
| QVQLGESGGGLVQAGGSLSLSCAASGNTFVSNAMGWYRQATGKERELVATISSGAHTYYADSVKGRFTISRDNAKNTVYLQMKSLKPEDTAVYYCASTSYGYWVGYIPEVDFWGQGTQVSVSS | low polyreactivity |
| QVQLVESGGGLVQAGGSLRLSCAASGSIFVGNAMGWYRQAPGKERELVAAISWGGARTYYADSVKGRFTISRDNAKNTVYLQMNSLKQEDTAVYYCAAGSSSRSTTHYYYWGQGTQVTVSS | high polyreactivity |
| QVQLVESGGGLVQAGGSLRLSCAASGRNFYYNAMGWYRQAPGKERELVAVISGRGGSTYYADSVKGRFTISRDNAKNTVYLQMNSLKPEDTAVYYCAAGYTRPWRFTYYYWGQGTQVTVSS | high polyreactivity |
| QVQLVESGGGLDQAGGSLRLSCAAAGRTFPYYAMGWYRQAPGKERELVATISTSGTSTYYADSVKGRFTISRDKAKNTVYLQMNSLKPEDTAVYYCNAVHRNWRQKFDYWGLGTQVTVSS | high polyreactivity |
| QVHLVESGGGLVQAGGSLRLSCAASGRTFREYFMGWYRQAPGQERELVAVISWSTGSTYADSVKGRFTISRDNAKNTVYLQMNSLKPEDTAVYYCARRVQSLRNVVIYNYWGQGTQVTVSS | low polyreactivity |
| QVQLVESGGGIVQAGGSLRLSCAASGSIFRRNAMGWYRQSPGKEMEMVASISRGGSTYYADSVKGRFTISRDNAKNTVYLQMNSLKPEDTSVYYCNVVPRWLSWVPTTRRIGDDDYWGQGTQVTVSS | high polyreactivity |
| QVQLVESGGGLVQAGGSLRLSCAASGRTFFRNAMGWYRQAPAKERELVAGISRSGGSTYYADSVKGRFTISRDNAQNTFSLEMNSLKPEDSAVYYFAAALYPYPGYEYWGQGTQVTVSS | high polyreactivity |
| QVQLVESGGGLVQAGGSLRLSCAASGRIFGWYAMGWYRQAPGKERELVAAIDGGDDSTYYADSVKGRFTISRDNAKNTVYLQMNSLKPEDTAVYYCAVVGYNWGQGSQVTVSS | low polyreactivity |
| QFQLVESGGGLFQAGGILRLSCAASGRNFLYNAMGWDRQAPGKERELVAAISSRGARTYYADSVKGRFTISRDNAKNTVYFQMNSLKPEDTAVYYCATDSYRYDGIQYLYEYYYWGQGTQVTVSS | high polyreactivity |
| QVQLVESGGGLVQAGGSLRLSCAASGSSFSWNAMGWYSQAPGKERELVAAISKRGTSTYYADSVKGRFTISRDNAKKTVYLQMNSLKPEDTAVYYCAARRYYGVYYAFYYWGQGTQVTVSS | high polyreactivity |
| QDQLVESGGGLVQAGGSLRLSCAASGSTFGFYAMGWYRQAPGKERELVAAITTGGSTNYADSVKGRFTISRDNAKNTVYLQMNSLKPEDTAVYYCNADVYWNPYYDYDYWGQGTQVTVSS | high polyreactivity |
